Laboratory results published in PMC10995199, “Architecture and regulation of filamentous human cystathionine beta-synthase” (Nature Communications, 2024).

Target: the molecule itself
Assay: SEC + native gel or EMSA; control constructs in analytical Superose 6 gel filtration and clear-native and blue-native PAGE (Supplementary Fig. 2); self-association

B1: human cystathionine beta-synthase catalytic domain alone (CBS^CD, residues 1–413) (domain or fragment, UniProt P35520 1-413, looked up)
chain: MPSETPQAEVGPTGCPHRSGPHSAKGSLEKGSPEDKEAKEPLWIRPDAPSRCTWQLGRPASESPHHHTAPAKSPKILPDILKKIGDTPMVRINKIGKKFGLKCELLAKCEFFNAGGSVKDRISLRMIEDAERDGTLKPGDTIIEPTSGNTGIGLALAAAVRGYRCIIVMPEKMSSEKVDVLRALGAEIVRTPTNARFDSPESHVGVAWRLKNEIPNSHILDQYRNASNPLAHYDTTADEILQQCDGKLDMLVASVGTGGTITGIARKLKEKCPGCRIIGVDPEGSILAEPEELNQTEQTTYEVEGIGYDFIPTVLDRTVVDKWFKSNDEEAFTFARMLIAQEGLLCGGSAGSTVAVAVKAAQELQEGQRCVVILPDSVRNYMTKFLSDRWMLQKGFLKEEDLTEKKPWWWHLR
notes: source: E. coli Rosetta (DE3), purified
- stoichiometry N: 2
